Assay results: patent US20200362033A1

B1: #84H1L2hIgG2 (antibody)
heavy: EVQLVESGGGLVQPGGSLRLSCAASGFTFSNYYMAWVRQAPGKGLEWVSTITTSGSRPYYADSVKGRFTISRDNSKNTLYLQMNSLRAEDTAVYYCARHIYYYDGYPFAYWGQGTLVTVSSASTKGPSVFPLAPCSRSTSESTAALGCLVKDYFPEPVTVSWNSGALTSGVHTFPAVLQSSGLYSLSSVVTVPSSNFGTQTYTCNVDHKPSNTKVDKTVERKCCVECPPCPAPPVAGPSVFLFPPKPKDTLMISRTPEVTCVVVDVSHEDPEVQFNWYVDGVEVHNAKTKPREEQFNSTFRVVSVLTVVHQDWLNGKEYKCKVSNKGLPAPIEKTISKTKGQPREPQVYTLPPSREEMTKNQVSLTCLVKGFYPSDIAVEWESNGQPENNYKTTPPMLDSDGSFFLYSKLTVDKSRWQQGNVFSCSVMHEALHNHYTQKSLSLSPGK
light: DVQMTQSPSSLSASVGDRVTITCKASKSISNNLAWYQQKPGKANKLLIHSGSTLQSGTPSRFSGSGSGTDFTLTISSLQPEDFATYYCQQYNEYPLTFGQGTKVEIKRTVAAPSVFIFPPSDEQLKSGTASVVCLLNNFYPREAKVQWKVDNALQSGNSQESVTEQDSKDSTYSLSSTLTLSKADYEKHKVYACEVTHQGLSSPVTKSFNRGEC
B2: #131H2L2hIgG2 (antibody)
heavy: QVQLVESGGGVVQPGRSLRLSCAASGFTFNNYWMTWVRQAPGKGLEWVASITKAGGSTYYADSVKGRFTISRDNSKSTLYLQMNSLRAEGTAVYYCTRELGEFYVMDAWGQGTTVTVSSASTKGPSVFPLAPCSRSTSESTAALGCLVKDYFPEPVTVSWNSGALTSGVHTFPAVLQSSGLYSLSSVVTVPSSNFGTQTYTCNVDHKPSNTKVDKTVERKCCVECPPCPAPPVAGPSVFLFPPKPKDTLMISRTPEVTCVVVDVSHEDPEVQFNWYVDGVEVHNAKTKPREEQFNSTFRVVSVLTVVHQDWLNGKEYKCKVSNKGLPAPIEKTISKTKGQPREPQVYTLPPSREEMTKNQVSLTCLVKGFYPSDIAVEWESNGQPENNYKTTPPMLDSDGSFFLYSKLTVDKSRWQQGNVFSCSVMHEALHNHYTQKSLSLSPGK
light: DVQMTQSPSSLSASVGDRVTITCKASKSINTYLAWYQEKPGKTNKLLIYSGSTLQSGTPSRFSGSGSGTDFTLTISSLQPEDFATYYCQQHNEYPFTFGQGTKLEIKRTVAAPSVFIFPPSDEQLKSGTASVVCLLNNFYPREAKVQWKVDNALQSGNSQESVTEQDSKDSTYSLSSTLTLSKADYEKHKVYACEVTHQGLSSPVTKSFNRGEC
B3: #101H1L2hIgG2 (antibody)
heavy: EVQLVESGGGLVQPGRSLRLSCAASGFTFSDYYMAWVRQAPGKGLEWVATISYDGSNTYYRDSVKGRFTISRDNSKSTLYLQMNSLRAGDTAVYYCARFYNNYYFDYWGQGTLVTVSSASTKGPSVFPLAPCSRSTSESTAALGCLVKDYFPEPVTVSWNSGALTSGVHTFPAVLQSSGLYSLSSVVTVPSSNFGTQTYTCNVDHKPSNTKVDKTVERKCCVECPPCPAPPVAGPSVFLFPPKPKDTLMISRTPEVTCVVVDVSHEDPEVQFNWYVDGVEVHNAKTKPREEQFNSTFRVVSVLTVVHQDWLNGKEYKCKVSNKGLPAPIEKTISKTKGQPREPQVYTLPPSREEMTKNQVSLTCLVKGFYPSDIAVEWESNGQPENNYKTTPPMLDSDGSFFLYSKLTVDKSRWQQGNVFSCSVMHEALHNHYTQKSLSLSPGK
light: DIQMTQSPSSLSASVGDRVTINCKASQNLYKNLAWYQQKPGKAPKLLIDNANSLQTGIPSRFSGSGSGTDFTLTISSLQPEDFATYFCQQYYSGSYTFGQGTKVEIKRTVAAPSVFIFPPSDEQLKSGTASVVCLLNNFYPREAKVQWKVDNALQSGNSQESVTEQDSKDSTYSLSSTLTLSKADYEKHKVYACEVTHQGLSSPVTKSFNRGEC

Target: human CD147 endogenously expressed on human cancer cell lines (human), P35613
Assay: cell-based or functional assay

| Binder | ratio of the phosphorylated p38MAPK signal to the detected p38MAPK signal, HepG2 cells, 10 ug/ml, 15 minutes (fold of the human IgG treated group) |
| --- | --- |
| B1 | > 2 |
| B2 | > 2 |
| B3 | > 2 |
